Assay results taken from patent US20050119456A1 (NEW YORK UNIVERSITY, published 2005).

Molecular target: T1, GST-SMRT (Hu SMRT(1-900) fused to GST, from pGEX-6p-1) (human, UniProt Q9Y618 1-900)
T1 construct: range 1-900; Expressed in bacteria with IPTG and adsorbed onto glutathione sepharose 4B; also called GST-SMRT agarose; immobilized SMRT; not shown: glutathione S-transferase of the pGEX-6p-1 bacterial expression vector
Assay: GST pull-down of 35S-labeled in vitro translated C21 fragment
Source text: FIGS. 15A and 15B show GST-pull-down of in vitro synthesized C21 by SMRT (1-900). Hu SMRT(1-900) cDNA was amplified by PCR and cloned in-frame into pGEX-6p-1 (GST fusion expression vector for bacterial expression). Expression of the GST fusion protein (FIG. 15A) or control (FIG. 15B) was induced with IPTG and the product adsorbed onto glutathione sepharose 4B. hC21 (full-length ORF or fragments lacking the C-terminal half(δ C), the F-box (δ F), the N terminal 40 amino acid (δ N) or a construct lacking both the N-terminus and the F-box (δN+F) was cloned in-frame into pCDNA3 vector with a Flag tag at the N-terminus. The plasmid, linearized with EcoRI, was purified and used as a template to label the product. For the pull-down experiments, 5 ng of ³⁵S-labeled hC21 protein(s) and 20 ul of GST agarose or GST-SMRT agarose were mixed. All four C21 constructs labeled with equal efficiency and the same quantity of labeled protein were used in each experiment. The denatured proteins were then electrophoresed through a 10% SDS PAGE gel.
Labeled C21 prepared by in vitro translation using 35S methionine can be “pulled-down” by immobilized SMRT. […] A fragment (21[δC]) consisting only of the first 230 amino acids (i.e., lacking all of the WD40 repeats and the carboxyl terminus) was as efficient as the full-length protein in reacting with SMRT.

T1 sequence (Q9Y618 1-900): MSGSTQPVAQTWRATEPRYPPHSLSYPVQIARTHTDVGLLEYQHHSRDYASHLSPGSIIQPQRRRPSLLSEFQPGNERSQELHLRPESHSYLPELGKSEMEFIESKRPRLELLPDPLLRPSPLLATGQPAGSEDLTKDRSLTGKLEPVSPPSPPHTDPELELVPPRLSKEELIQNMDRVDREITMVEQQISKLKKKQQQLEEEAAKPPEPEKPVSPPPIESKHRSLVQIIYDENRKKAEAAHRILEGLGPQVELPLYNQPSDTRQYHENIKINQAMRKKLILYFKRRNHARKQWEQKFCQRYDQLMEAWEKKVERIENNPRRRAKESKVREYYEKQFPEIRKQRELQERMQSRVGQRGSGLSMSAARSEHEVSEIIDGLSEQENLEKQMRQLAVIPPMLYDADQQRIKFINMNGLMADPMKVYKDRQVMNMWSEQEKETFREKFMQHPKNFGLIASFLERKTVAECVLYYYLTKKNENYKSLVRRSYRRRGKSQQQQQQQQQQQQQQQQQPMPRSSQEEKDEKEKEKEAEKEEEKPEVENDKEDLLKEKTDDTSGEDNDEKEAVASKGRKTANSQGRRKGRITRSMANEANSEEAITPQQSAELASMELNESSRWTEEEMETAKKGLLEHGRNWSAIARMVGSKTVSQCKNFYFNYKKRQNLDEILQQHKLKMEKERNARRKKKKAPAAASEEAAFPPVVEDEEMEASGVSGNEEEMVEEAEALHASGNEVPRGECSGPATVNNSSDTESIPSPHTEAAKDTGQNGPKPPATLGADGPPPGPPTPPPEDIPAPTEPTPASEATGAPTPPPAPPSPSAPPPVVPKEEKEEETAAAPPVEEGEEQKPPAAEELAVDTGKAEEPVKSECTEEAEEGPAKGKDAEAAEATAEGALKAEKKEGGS

binding result: no binding
B1: 21[5N] (other)
chain: GALVPPAALISIIQKGLQYVEAEVSINEDGTLFDGRPIESLSLIDAVMPDVVQTRQQAYRDKLAQQQAAAAAAAAAAASQQGSAKNGENTANGEENGAHTIANNHTDMMEVDGDVEIPPNKAVVLRGHESEVFICAWNPVSDLLASGSGDSTARIWNLSENSTSGSTQLVLRHCIREGGQDVPSNKDVTSLDWNSEGTLLATGSYDGFARIWTKDGNLASTLGQHKGPIFALKWNKKGNFILSAGVDKTTIIWDAHTGEAKQQFPFHSAPALDVDWQSNNTFASCSTDMCIHVCKLGQDRPIKTFQGHTNEVNAIKWDPTGNLLASCSDDMTLKIWSMKQDNCVHDLQQHNKEIYTIKWSPTGPGTNNPNANLMLASASFDSTVRLWDVDRGICIHTLTKHQEPVYSVAFSPDGRYLASGSFDKCVHIWNTQTGALVHSYRGTGGIFEVCWNAAGDKVGASASDGSVCVLDLRK
modifications: 35S-methionine label
notes: also called δ N; hC21 fragment lacking the N terminal 40 amino acid; not shown: Flag tag at the N-terminus
